Results as given in PMC9177983, “Mechanism of transcription modulation by the transcription-repair coupling factor”.

How the values were obtained:
Mfd [1] = biological target: T1, Mfd (Escherichia coli, UniProt P30958 1-1148); experiment: SPR; 0.5 mM ATPgS; SPR: 30 mM Tris/HCl pH 7.6, 40 mM KCl, 5 mM MgCl2, 0.005% P20, 0.25 mM EDTA, 0.5 mM DTT, 0.5 mM ATPgS, 20 C; smFRET: 20 mM Tris/HCl pH 8.0, 40 mM KCl, 5 mM MgCl2, 1 mM 2-mercaptoethanol; details: protein: recombinant, tags: none stated
Mfd;RNAP core = Mfd;RNAP core (Escherichia coli;Escherichia coli, UniProt P30958;P0A7Z4;P0A8V2;P0A8T7;P0A800 1-1148;1-329;1-1342;1-1407;2-91, |); experiment: SPR; 0.5 mM ATPgS; Mfd titrated onto immobilized RNAP EC; SPR: 30 mM Tris/HCl pH 7.6, 40 mM KCl, 5 mM MgCl2, 0.005% P20, 0.25 mM EDTA, 0.5 mM DTT, 0.5 mM ATPgS, 20 C; smFRET: 20 mM Tris/HCl pH 8.0, 40 mM KCl, 5 mM MgCl2, 1 mM 2-mercaptoethanol; details: protein: recombinant;recombinant; tags: none stated;His; copies: 1;2;1;1;1; label: 3' bioTEG on NT; iCy3 on TS; transcription bubble with RNA:DNA hybrid
Mfd [2] = biological target: T1, Mfd; experiment: SPR; ATPgS; SPR: 30 mM Tris/HCl pH 7.6, 40 mM KCl, 5 mM MgCl2, 0.005% P20, 0.25 mM EDTA, 0.5 mM DTT, 0.5 mM ATPgS, 20 C; smFRET: 20 mM Tris/HCl pH 8.0, 40 mM KCl, 5 mM MgCl2, 1 mM 2-mercaptoethanol; details: protein: recombinant; tags: none stated; label: 3' bioTEG on NT; 9-nt non-complementary bubble (dT9 in NT); blunt ends
Mfd(R953A) = Mfd(R953A) (Escherichia coli, UniProt P30958 1-1148, R953A); experiment: SPR; 0.5 mM ATPgS; SPR: 30 mM Tris/HCl pH 7.6, 40 mM KCl, 5 mM MgCl2, 0.005% P20, 0.25 mM EDTA, 0.5 mM DTT, 0.5 mM ATPgS, 20 C; smFRET: 20 mM Tris/HCl pH 8.0, 40 mM KCl, 5 mM MgCl2, 1 mM 2-mercaptoethanol; details: protein: recombinant; tags: none stated; label: 5' biotin on AS18; 5' overhang 6 nt (template)

B1: NT_49_bio:TS_49 (dsDNA)
DNA 1: CACTACTGCGACTTACAGACATCGAGAGGGTAATGGCGAATAGCACTGA
DNA 2: TCAGTGCTATTCGCCATTACCCTCTCGATGTCTGTAAGTCGCAGTAGTG
modifications: internal Cy3 in TS_49 after nt 31
Kd (Mfd [1]; label: 3' bioTEG on NT, iCy3 on TS, blunt): 170 ± 20 nM

B2: EC scaffold 49-mer (TS_49:NT_49_bio:RNA_15) (mixed)
DNA 1: B1 DNA 2
DNA 2: B1 DNA 1
RNA: AUAUAUAUCGAGAGG
modifications: internal Cy3 in TS_49 after nt 31
Kd (Mfd;RNAP core): 127 ± 6 nM

B3: 49-mer with 9-nt bubble (NT_49_bio_bubble:TS_49) (dsDNA)
DNA 1: CACTACTGCGACTTACAGACTTTTTTTTTGTAATGGCGAATAGCACTGA
DNA 2: B1 DNA 2
Kd (Mfd [2]): 395 ± 7 nM

B4: bio_dT40_S18 58-mer ssDNA (ssDNA)
DNA: TTTTTTTTTTTTTTTTTTTTTTTTTTTTTTTTTTTTTTTTGCCTCGCTGCCGTCGCCA
Kd (Mfd [1]; label: 5' biotin, single strand): ~4000 nM

B5: dT40_S18:bio_AS18 (dsDNA)
DNA 1: B4 DNA
DNA 2: TGGCGACGGCAGCGAGGC
Kd (Mfd [1]; label: 5' biotin on AS18, 18 bp with 5' overhang 40 nt): 300 ± 10 nM

B6: Cy3_dT40_S18:bio_AS18_Cy5 (dsDNA)
DNA 1: B4 DNA
DNA 2: TGGCGACGGCAGCGAGGC
Kd (Mfd [1]; label: 5' Cy3, 5' biotin and 3' Cy5 on AS18, 18 bp with 5' overhang 40 nt): 390 ± 10 nM

B7: S18:bio_AS18 (dsDNA)
DNA 1: GCCTCGCTGCCGTCGCCA
DNA 2: TGGCGACGGCAGCGAGGC
Kd (Mfd [1]; label: 5' biotin on AS18, blunt): 90 ± 4 nM

B8: dT15_S18:bio_AS18 (dsDNA)
DNA 1: TTTTTTTTTTTTTTTGCCTCGCTGCCGTCGCCA
DNA 2: TGGCGACGGCAGCGAGGC
Kd (Mfd [1]; label: 5' biotin on AS18, 5' overhang 15 nt (template)): 220 ± 10 nM

B9: dT6_S18:bio_AS18 (dsDNA)
DNA 1: TTTTTTGCCTCGCTGCCGTCGCCA
DNA 2: TGGCGACGGCAGCGAGGC
binding signal (Mfd(R953A)): 2.3 fold weaker Kd than wild type
